This is an account of results in the DeepSol protein solubility set.

The data set can be described thus: soluble on expression in E. coli; label from the status in PepcDB or PDB records.
Regarding “MKPVKVGICGLGTVGGGTFNVLERNAEEIARRAGRGIEVAQIAARRPNPKCDTGATPITADIFDVACNPEIDVVVELIGGYTLAHELVLKAIENGKHVVTANKALIAVHGNEIFAKAREKGVIVAFEAAVAGGIPVIKAIREGLSANRINWLAGIINGTGNFILSEMREKGRTFPDVLAEAQALGYAEADPTFDVEGIDAAHKLTILASIAFGIPLQFDKAYTEGISKLTSADVNYADALGYRIKHLGVARRTESGFELRVHPTLIPSDRLIANVNGVMNAVMVNGDAVGSTLYYGAGAGMEPTASSVVADLVDVVRAMTSDPENRVPHLAFQPDALSDHPILPIEACESAYYLRIQAKDHPGVLAQVATILSERGINIESIMQKEAEEQDGLVPMILVTHRVIEQRINDAIAALEALEGVSGPVVRIRVEQL”, the “soluble on expression in E. coli” value was “soluble”.

For the sequence “MKQEIIIAGFGGQGVLSMGKILAYSGLMEDKEVTWMPAYGPEQRGGTANVTVIVSDERISSPILSQYDTAIILNQPSLEKFEGKIKPGGILIYDGYGIIEPPTRKDIQIYRIDAMDAANEKGMAKTFNMIVLGGLLKLRPVVSIESVIKALRKTLPERHHHLIPMNEEAIRIGMEIIK”, the “soluble on expression in E. coli” value is “not soluble”. The entry for “MKQFLVALTILTSSLFSFASALDIIDESFLALKEFLDQPDSGAFLSLLERARGIFIVPKYLKLGWVLGGQYGQGVLLKRDPETNTWYGPLFVKMYGLSFGPQIGFQSVSLIAVIMENVDAFAEGNITLGGSLSVAAGPLGRRLSADYNLDASVYSYSIARGFYAGFSLEGAKIDVDLDLTREYYNVYRIEPEEILRREVSGRAEKIVNLLNEKLTEEAAALEHHHHHH” is “not soluble”. The entry for “MKQHILVLEDANQRRTIILDEQQYSIGRHSGTSIQIHSRQASRHHATLMRKTNSKTNEECFWIIDGDLEGNKSQNGVFVNGEKRLIHELKNGDLINFGCSINALEHHHHHH” is “not soluble”; for “MKQIAFIGLGHMGAPMATNLLKAGYLLNVFDLVQSAVDGLVAAGASAARSARDAVQGADVVISMLPASQHVEGLYLDDDGLLAHIAPGTLVLECSTIAPTSARKIHAAARERGLAMLDAPVSGGTAGAAAGTLTFMVGGDAEALEKARPLFEAMGRNIFHAGPDGAGQVAKVCNNQLLAVLMIGTAEAMALGVANGLEAKVLAEIMRRSSGGNWALEVYNPWPGVMENAPASRDYSGGFMAQLMAKDLGLAQEAAQASASSTPMGSLALSLYRLLLKQGYAERDFSVVQKLFDPTQGQ” it is “soluble”. Consider “MKQMNVVLIGGGTGLSVLARGLREFPIDITAIVTVADNGGSTGKIRDVMDIPAPGDIRNVIAALSDSESILTQLFQYRFGENQVDGHSLGNLVIAGMTNITNDFGHAIKELSKVLNIKGQVIPSTNASVQLNAVMEDGEIVHGETNIPKTHKKIDRVFLEPSDVEPMNEAIEALEQADLIVLGPGSLYTSVISNLCVKGISEALLRTSAPKLYVSNVMTQPGETDNYDVKEHIDALTRQVGEPFIDFVICSSESYSKDVLQRYEEKNSKPVAVHKEQLKDSGIRVLTASNLVEISNEHYVRHNTKVLSKMIYELALELTSTIRFTPSDKKKMAGDPLEHHHHHH”, for which the “soluble on expression in E. coli” value is given as “soluble”.

For “MKQRGGFLGGQLLIAMPGMNDKRFIRSVIYICAHSDAGAMGIILNQLHHIGFPELLLHLGVINSGQKKDLSEPIKKFPVRYGGPVDPSRGFVLHSDDYACEETVLVADKICFTATIDILKAISCEKGPQHALIALGYAGWKAGQLEAEISTNGWLISSTSPSFLFESDLNRKYDESLIRMGINPTYLVSEMGHA”, the “soluble on expression in E. coli” value was “not soluble”.

As to “MKQTTINHSVELVGIGLHKGVPVKLVLEPLGENQGIVFYRSDLGVNLPLKPENIVDTKMATVLGKDNARISTIEHLLSAVHAYGIDNLKISVDNEEIPIMDGSALTYCMLLDEAGIKELDAPKKVMEIKQAVEIRESDKFVKIEPDSQLSLNFTIDFNHPVIAKQAHHFVFSKTAYKEQVAKARTFGFLQEVNYLRSIGLAKGGSLNNCIVLDENSILNKEGLRCEKEFVCHKILDAMGDLMVLGMPVMGKYTSFSGSHKLNSMLVKAILADAKNYEVLIAADPAKEFALQKAFALEHHHHHH”, the “soluble on expression in E. coli” value was “not soluble”. As to “MKRAPFLCKQSPDRTLEVVILAGSLAWETSRVWRKDPDREDDVPPMVLGPNELADLSNLTIIRPDTLYVRVLRTGDISEEDLLKIAVKLAHAGVQMARLMSPDGELLENWTGQLERLRQERPSDILPDHFRLDEEALWFDKLTERRDGESDVQPQRICSPLRVTAITCDSHDGSYGRLLEWHTTTGQLRRWAMPMAMLSGNGEELRRILLENGLTNISTRPALRSLLCEYISRSLPGRRVTCVEKTGWHNGVYVLPDEVIGPDGDNVILQGSHYLTGGFAQAGTLAEWQEQVAALCAGNSRLVFAVCCALAAPLLRLTGTGGGGFHLRGESTDGKTTVMKVAASVCGGTDYWHSWRATGNALEGIASRHNDALLPLDELREVDPREAGMIAYMLANGQGKGRARTDGEVRNRRHWTLLLFSTGELSLAEHTERAGERIYAGMDVRMVQIPSDTGQHGAFEQLHGFASGQQFADTLCDRVARFHGTAFRAWLAFLTHDQDASTTLARELLRRYQNALMPDNAGNQVQRIVARFALLAAAGEIATLHGITGWQKGTAYEAVQICLHAWLNERGHIANQEDEGVLAQIKRFITAHQYSRFASWDGPDRPLNMAGFRRVEKDPLTGEEHTLFFILPEGWREICRGFSPARAARLCQEAECLQPGSDGKYQSQVRLPEIGKTRVYRLTSRILSILEHHHHHH”, the “soluble on expression in E. coli” value is reported as “soluble”. In the case of “MKRGKRLILPLLGTLILTSLFSCGVDRWPEYYPETGRDIWIDSVMRQEYLWYRDMPSPAAPDYFQKPEAFLKKAVASMDNGFSKIDSLLDEPIPSYGFDYTLYKVLDNDTAYNALISYVVPGSPAEEAGLQRGHWIMMMNGDYITKKVESELLQGSTRQLQIGVYKEVVGEDGEVTGGVVPIGETTMPASRSLVDKPVHRFEIIPWNGKKVGYLMYNEFKAGPTTDSQAYNDDLRRAFRDFQTGGVNEFVLDLRYNTGGSLDCAQLLCTMLAPADKMNQLLALLRYSDKRVEANQDLTFNPELIQSGANLNLSTVYVLTTNATRGAAEMVINCLNPYMKVVLIGTKTAGEYVATKPFVHPTDRFILNLVVCNVYNAEEKSDYATGFKPTYEYNEDSYLSTYLPFGNTNETLLNAALKIMSGITDK”, the “soluble on expression in E. coli” value is given as “not soluble”. Consider “MKRILVVFLMLAIILAGCSNKGEKYQKDIDKVYKEQNQMNKIASKVQNTIKTDIKQEDSNTHVYKDGKVIVIGIQLYKDREKMYYFAYEIKDGKAEINREIDPIKYMKDHKADYEDENVEVEKDMAGDPLEHHHHHH”, for which the “soluble on expression in E. coli” value is reported as “not soluble”.

With “MKRKVQVKNITIGEGRPKICVPIIGKNKKDIIKEAKELKDACLDIIEWRVDFFENVENIKEVKEVLYELRSYIHDIPLLFTFRSVVEGGEKLISRDYYTTLNKEISNTGLVDLIDVELFMGDEVIDEVVNFAHKKEVKVIISNHDFNKTPKKEEIVSRLCRMQELGADLPKIAVMPQNEKDVLVLLEATNEMFKIYADRPIITMSMSGMGVISRLCGEIFGSALTFGAAKSVSAPGQISFKELNSVLNLLHKSIN”, the “soluble on expression in E. coli” value is given as “not soluble”. The entry for “MKRKVSVYDSSKDKTLGQVVKGESPIWIRVAMAILRVWFFIYDCLNYLPYQLFNSPTEKLRKSERVKANWVDDRDGPIRNIQGHASETFPGKDTVDKVWRKCVELYDESPCLGTRQLIEVHEDKQPGGRVFEKWHLGEYVWQSYKEVETQVARLAAGIKDLAHEEQNPKVVIFAETRADWLITALACFRANVTIVTVYATLGEDAIAHAIGETEATILVTSSELLPKIVTLGKKCPTLKTLIYFAPVDQKAPAPELAPFRDQFKHVLSLSGLLTRNQEQVKESTAVKSDIALIMYTSGTTGQPKGVILLHQNVVAALLGQGDGVGIICNADTYIGYLPLAHILELDAELTCLTKGAKVGYSSPLTLHDRASKIQKGTHGDCHALRPTLMAAVPAIMDRIFKAVSEEVAASPRFMQELFKLNYERKRSRYLEGYCSPFLDRIVFKKIRRLLGGKLRGVLSGGAPLNAETQRFMNICMCCPVVQGYGLTETCGAACVADINDLSTGTVGPPVRCSDIALREWSEGGYSPFNDPPQGEILISGENISPGYYKQPEKTAEDFITYKGKVYFATGDIGQKRDDGSLLIIDRKKDLVKLQHGEYVSLAKVECALLNCPIVDNICVYGSGMEDSVVALVVPNQKHLEKIAEAEGVSTSEMKTMCEDKKVIAAYKKQLEEHAKKSKLSRSEIPAAIHLCPEIWTPDTGLLTEALKLKRKPIQMAYQKTLDDLYKQLKKN” is “not soluble”; for “MKRMLASLLGTAIALGSGLALAAEADLQALEQAARKEGQVNSVGMPDSWANWKDTWKDLESKYGLKHMDTDMSSAQELAKFKAEKDNASADIGDVGAAFGPIAVQQGVSQPYKPSTWEQIPAWAKDQDGHWALAYTGTIAFIVNKQLVKDVPHSWADLLQGKYKVTIGDVSAAAQAVNGVLAAAIANGGDEKNIKPGLEFFGKIAKQGRLSLTNPVIATLEKGEVEVGIVWDFNGLSYRQQIDPERFEVLIPSDGSVISGYTTIINKYAKHPNAAKLAREYIFSDAGQINLAKGNARPIRAESLTLPDDVKAQLLPNEQYAKAQPIKDAKAWEETSKRLPRQWQEAVIINMQ” it is “not soluble”. Take “MKRSHLENALNYALENSETAYNEMFLECDKQFILESWLNDFDLTKDYNETMHLVFSIKDKPDEETMQGLLHSTWESLKIRLPEYKFALVPHAHQDHAHIHCFINKTNQLTRRRLRFKGHEDCKEFFNELRSEFAYRLNDHLLSEEYLYVNEPKLKELDNIKQQLQDLEKEEKALEQIKSPQDEWDLNKALQSEYLQELKYKNKAKALDIQNNHSTPLKQKISEFKIALFNHKDTSDDEKEQLDIDRIDKRKPVSEHLKNTNKHELYELLGFYQKELDKKQNHSAFKNFAILNGLDRDFERETNGYSVLKKKEMLLNKLEHLDKRLLDKNSHLLLAQ”: the “soluble on expression in E. coli” value is given as “not soluble”.

On to “MKRVFVFQDFKSQKFWSIDVRGTDVIVNYGKLGTDGQTQVKNFSSAGEAEKAAGKLIAEKTKKGYVETLEEVAKEMKVEAKKYALSYDEAEEGVNLMDKILKDKKLPSLKQITIGCWGYEGEDCSDIADGIVENKEKFAHFEGLFWGDIDFEEQEISWIEQVDLSPVLDAMPLLNNLKIKGTNNLSIGKKPRPNLKSLEIISGGLPDSVVEDILGSDLPNLEKLVLYVGVEDYGFDGDMNVFRPLFSKDRFPNLKWLGIVDAEEQNVVVEMFLESDILPQLETMDISAGVLTDEGARLLLDHVDKIKHLKFINMKYNYLSDEMKKELQKSLPMKIDVSDSQEYDDDYSYPMITELEHHHHHH”, for which the “soluble on expression in E. coli” value is on record as “soluble”.

For “MKRVFVTVGTTSFDDLIARVVAHDSVQILKNLGYNQLVLQIGRGTVVPEPFSTESFTLDVYRYKDSLKEDLQQADLVISHAGAGSCLESLEKGKPLVVVVNEKLMNNHQFELAKQLHREGHLFYCTCSMLPELLQSMDLSTLKCYPPGQPEKFSAFLDKVVGLQK”, the “soluble on expression in E. coli” value was “soluble”. The entry for “MKRWIAIILIALMPAAQAGKAAKVTLVVDDVPVVQVLQTLAEQERQNLVVSPDVSGTLSLHLTDVPWKQALQTVVNSAGLVLRQEGNILHVHSQAWQKEHSARQDAERLRFQANLPLENRSISLQYADAGELAKAGEKLLSAKGTIMVDKRTNRLLLRDNRAALAELEKWVSQMDLPVAQVELAAHIVTINEKSLRELGVKWTLADATQAGSVGDVTTLSSDLSVAAATSRVGFNIGRINGRLLDLELSALEQKQLLDIIASPRLLASHLQPASIKQGSEIPYQVSSGESGATSVEFKEAVLGMEVTPTVLQKGRIRLKLHISQNVPGQVLQQADGEVLAIDKQEIETQVEVKSGETLALGGIFSRKNKSGSDSVPLLGDIPWLGQLFRHDGKEDERRELVVFITPRLVATELEHHHHHH” is “soluble”.
